Data taken from patent publication US7534431.

Molecular target: carcinoembryonic antigen (CEA) (UniProt P06731)
Experiment: size-exclusion HPLC shift of radioiodinated bispecific conjugate in the presence of excess CEA

UniProt P06731, sequence (P06731 35-685 limits assumed): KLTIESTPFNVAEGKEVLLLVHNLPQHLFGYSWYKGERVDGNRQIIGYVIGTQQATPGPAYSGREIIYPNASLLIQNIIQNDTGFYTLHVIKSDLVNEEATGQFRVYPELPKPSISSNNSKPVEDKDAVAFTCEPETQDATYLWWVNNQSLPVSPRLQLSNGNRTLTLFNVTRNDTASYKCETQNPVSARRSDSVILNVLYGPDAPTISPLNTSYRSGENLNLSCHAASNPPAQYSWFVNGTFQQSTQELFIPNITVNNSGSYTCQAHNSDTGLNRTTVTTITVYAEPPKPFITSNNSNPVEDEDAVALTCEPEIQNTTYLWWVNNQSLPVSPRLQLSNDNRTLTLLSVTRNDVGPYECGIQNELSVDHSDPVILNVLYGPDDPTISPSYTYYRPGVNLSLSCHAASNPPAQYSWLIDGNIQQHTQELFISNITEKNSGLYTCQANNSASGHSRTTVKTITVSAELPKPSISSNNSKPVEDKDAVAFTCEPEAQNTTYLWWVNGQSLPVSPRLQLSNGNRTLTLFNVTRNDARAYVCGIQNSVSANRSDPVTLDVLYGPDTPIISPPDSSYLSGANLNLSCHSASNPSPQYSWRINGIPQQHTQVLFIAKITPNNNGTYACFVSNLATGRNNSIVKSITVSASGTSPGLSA

Substance “hMN-14×734 bispecific antibody (Fab' of humanized anti-CEA hMN-14 coupled to Fab' of murine anti-indium-DTPA 734)” has an immunoreactivity (fraction of radioiodinated sample shifted by excess CEA) of over 85%.
